Assay: yeast display, Sf9 membrane polyspecificity reagent, FACS + sequencing; frameworks hold sequencing errors
How it was run: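 A nanobody's polyreactivity label depends on the gate it was sorted from. Yeast display cells were stained with 10% biotinylated, detergent-solubilized Sf9 membrane reagent for 1 hour at 4 °C, enriched on streptavidin microbeads and sorted by FACS. The low and high (top ~1%) gates were set on anti-HA fluorescence for expression and streptavidin fluorescence for reagent binding.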

Sequence: QVQLVESGVGLVQAGGSLRLSCASSGLIFYDNMGWYRQAPGKERELVAAISSSGGSTSYADSVKGRFTISRDNAKNTVYLQMNSLKPEDTAVYYCAADYRRYGSYDYWGQGTQVTVSS
- polyreactivity (PSR sort gate): low polyreactivity

Sequence: QVQILESGGGLVKAGGSLRLSCAASGYTFYANAMGWYRKAPGKEREFVASITWSGGSTYYADSVKGRFTISRDNAKNTVYLQMNSLKPEDTAVDYCAADVIGDLRWYRDEYLGQGTQVTVSS
- polyreactivity (PSR sort gate): low polyreactivity

Sequence: QVQLVESGGGLVQAGGSLRLSCAASGSTFWDNAMGWYRQAPGKERELVAAITAIGGTTYYADSVKGRFTISRDNAKNTVYLQMNSLKPEDTAVYYCAADWTTYGFSYFSIYYYWGQGTQVTVSS
- polyreactivity (PSR sort gate): low polyreactivity

Sequence: QVQLVESGGGLVQAGGSLRLSCAASGLISTPNAMGWSRQAPGKERELVASISSRGGSTYYADSVKGRFTISRDNAKNTVYLQMNSLKPEDTAVYYCAADAYRDFYYEYYYWGQGSQVTVSS
- polyreactivity (PSR sort gate): low polyreactivity

Sequence: QVQLVESGGGLVQAGGSLRLSCAASGFIFSHNAMGWYRQAPGKERELVAAIDYIDGSTYYADSVKGRFTISRDNAKNTVYLQMNSLKPEDTAVYYCAADGLFYWWHYGYWGQGTQVTVSS
- polyreactivity (PSR sort gate): low polyreactivity

Sequence: QVQLVESGGGLVQAGGSLRLSCAASRRIFYAYAMGWYRQAPGKEIELLATITGIGGSTYADSVKGRFTISRDNAKNTVNLQMNSLKPEDTAVYYCNAERGVYWGRYPYKYDYLGQGTQVTVSS
- polyreactivity (PSR sort gate): low polyreactivity

Sequence: QVQLVESGGGLVQAGGSLRLSCAASGSIFVDYTMGWYLQAPGKERELVARITSGGSTYYADSVKGLFTISRDNAKNTVYLQMIRLNPEDTAVYYCAARPYYRYRNSWREQYYYWGQGTQVSVSS
- polyreactivity (PSR sort gate): high polyreactivity

Sequence: QVQLVESGGGLVQAGGSLRLSCAASGRIFAYNTMGWYRQAPGKERELVAVITSGGSTNYADSVNGRFTISRDNAKNTVYLQMNSLKPEDTAVYYCAKRPYGRSGGSRYDYWGQGTQVTVSS
- polyreactivity (PSR sort gate): high polyreactivity

Sequence: QVQLVESCGGLVHAGGSLRLSCAASGRTCVGNVMGWYRQAPGKERELVAAISRSGGNTYYADSVKGRFTISRDNAKNTVYLLMNSLKPEDTAVYYCAKVGLYGPVEYDYWGQGTQVTVSS
- polyreactivity (PSR sort gate): high polyreactivity

Sequence: QVQLVESGGGLVQAGGSLRLSCAASGRIFYKYVMGWYRQAPGKERELVAAINRSGGTTYYADSVKGRFTISRDNAKNTVYLQMNSLKPEDTAVYYCNATLPDYWPYYYYQGGDDYWGQGTQVTVSS
- polyreactivity (PSR sort gate): low polyreactivity

Sequence: QVQLVESGGGLVQAGGSLRLSCAASGSIIGTYAMGWYRQAPGKERELVAAISSSGGRTYYADSVKGRFTISRDNAKNTVYLQMNILKTEYTAVYYCNTRPGTVFRAGGDYWGQGTQVTVSS
- polyreactivity (PSR sort gate): high polyreactivity

Sequence: QVQLVESGGGLVQAGGSLRLSCAASGIIFYPNAMGWYRQAPGKERELVAAISWRSGSTYYADSVKGRFTISRDNAKNTVYLQMNSLKPEDTAVYYCAADRRRSYIWRYDYWGQGTQVTVSS
- polyreactivity (PSR sort gate): low polyreactivity

Sequence: QVQLVESRGGLVQAGVSLRLSCASSGRIVGWYAMGWYIQAPGKERELVAVITWSDGRTYYADSVKGRFTISRDNAKNTVYLQMNSLKPEDTAVFYCAAADWITEYDYWGQGTQVTVSS
- polyreactivity (PSR sort gate): low polyreactivity

Sequence: QVQLVESGGVLVQAGGRLRLSCAASGLTFNENVMGWYRQAPGKERELVAAISTGASTYYADSVKGRFTISRDNAKNTVYLQMNSLKPEDTAVYYCAKRVNRWYGYWGQGTQVTVSS
- polyreactivity (PSR sort gate): high polyreactivity

Sequence: QVQLVESGGGLVQAGGSLRLSCAATGSIFYFNAMGWYRKAPGKERELVADISGSGGSTYYADSVKGRFTISRDNAKNTVYLQMNSLKPEDTAVYYCAARLYLHSWWYYAYDYWGQGTQVTVSS
- polyreactivity (PSR sort gate): high polyreactivity

Sequence: QVQLVESGGGLVQAGGSLRLSCAASGSTFNRYAMGWYRQAPGKERELVAGISYSGTRTYYADSVKGRVTISRDNAKNTVYLQMNSLKPEDTAVYYCAAVYPGPYYARRRLFYWGQGTQVTVSS
- polyreactivity (PSR sort gate): high polyreactivity

Sequence: QVQLVESGGGLVQAGGSLRLSCAASGRTLDHYAMGWYRQAPGKERELVAAITSSGGSTYYADSVKGRFTISRDNAKNTVYLQMNSLKPEETAVSYCAADVSSQREWIIEHDYWGQGTQVTVSS
- polyreactivity (PSR sort gate): low polyreactivity

Sequence: QVQLVESGGGLVQAGGSLRLSCAASGRIFYLNVMGWYRQAPGKERELVAAITRRDVTTYADSVKGRFTISRDNAKNTVYLQMNSLKPEDTAVYYCNAEYVPYYEYESWGQGTQVTVSS
- polyreactivity (PSR sort gate): low polyreactivity

Sequence: QVQLVESGGGLVQAGGSLRLSCAASGFTFVGNAMGWYRQAPGKERELVATITSGGNTKYADSVKGRFTISRDNAKNTVYLQMNSLKPEDTAVYYCAAAKYNYRRFNSWGQGTQVTVSS
- polyreactivity (PSR sort gate): low polyreactivity

Sequence: QVHLVESGGGLDQAGGSLRLSSASSGRIIVRNAMGCYRQAPGKERELVADISSSGGRTYYADSVKGRFTISRDNAKNTVYLQMNSLKPEDTAVYYCAASSSNNEYDYWGQGTQETVSS
- polyreactivity (PSR sort gate): high polyreactivity

Sequence: QVQLVESGGGLVQAGGSLRLSCAASGSIFLVNDKGWYRPAPGKERELVAAISSRGGSTYYADSVKGRFTISRDNAKNTVYLQMNSLKPEDTAVYYCAALQRPLEGLLYYYWGQGTPVTVSS
- polyreactivity (PSR sort gate): low polyreactivity

Sequence: QVQLVESGGGVVQAGGSLRLSCAASGRTFNYYAMGWYRQAPGKERELVAAISRTATTYYADSVKGRFTISRDNAKNTVYLQMNSLKPEDTAVYYCAARSYSSSFSYRHYYWGQGTQVTVSS
- polyreactivity (PSR sort gate): high polyreactivity

Sequence: QVQLEESGGGLVQAGGSLRLSCAASGRIFYPYAMGWYRQAPGKERELVAAISRSGGSTYYADSVKGRFTISRDNAKNTVYLQMNSLKPEDTAVYYCATGFYRAISHHGYDYWGQGTQVTVSS
- polyreactivity (PSR sort gate): low polyreactivity

Sequence: QVQLVESGGGLVQAGGSLRLGCAASGITFTPYAMGWYRQAPGKERELVAAISWRGGSTYYADSVKGRFTISRDNAKNTVYLQMNSLKPEDTAVYFCAKDGRGYGRYSRYYTGDYWGQGTQVTVSS
- polyreactivity (PSR sort gate): low polyreactivity

Sequence: QVQLVESGGGLVQAGGSLRLSCAASGRIFISNAMGWYRQAPGKERELVAAISWRGTRTYYADSVKGRFTISRENAKNTVYLEMNSLKPEVTAVYYCNADRHRSRGMDYWGQGTQVTVSS
- polyreactivity (PSR sort gate): high polyreactivity

Sequence: QVQLVESGVGLVQAGGSLRLSCAASGSTFRRNTMGWYRKAPGKERELVAAINYSGGSTYYADSVKGRFTISRDNAKNTVYLQMNSLKPEDTAVYYCAARYAYDFPYYYWGQGTQVTVSS
- polyreactivity (PSR sort gate): high polyreactivity

Sequence: QVQLVESGGGLVQAGGSLRLSCAASGRTFWLYAMGWYRQAPGKERELVARITRRDGSTNYADSVKGRFTISRDNAKNTVYLQMNSLKPEDTAVYYCAAGRFRYPPGAYDYWGQGIQVTVSS
- polyreactivity (PSR sort gate): high polyreactivity

Sequence: QVQLVESGGGLVQAGGSLRLSCAASGRTFVSNTMGWYRQAPGKERELVAAINYSVASTNYADSVKGRFTISRDNAKNTVYLQMNSLKPEDTAVYYCNRASAGWGQGTQVTVSS
- polyreactivity (PSR sort gate): low polyreactivity

Sequence: QVQLVESGGGLVQAGGSLRLSCAASGRTFPYNAMGWYRQAPGKERELVAVISSSGGSTYYADSVKGRFTISRDNAKNTVYLQMNSLKPEETAVYYCNTRPYYYRRPGYRYSGYDYWGQGTQVTVSS
- polyreactivity (PSR sort gate): high polyreactivity

Sequence: QVQLVESGGGLDQAGGSLRLSCAASVSNFEYYVMGWYRQAPGTERELVAVIRRSSGSTYYADSVKGRFTISRDNAKNTVYLQMNSLKPEDTAVYYCAARRYEPIIWHRMDYCGQGTQVTVSS
- polyreactivity (PSR sort gate): low polyreactivity

Sequence: QVQLVESGGGLVQAGGRLRLSCAASGFIHYAMGWYRQAPGNERELVAAIRHSGGSTYYADSVKGRFTISRDNANNTVYIHMNSLKPEDTAVYYCAASRSGVGYRMQYWGQGTQVTVSS
- polyreactivity (PSR sort gate): low polyreactivity

Sequence: QVQLVESGGCLVQAGGSLGLSCAASGFSFLEYAKGWYRQAPGKERELVAVISRRGGRTYYADSVKGRFTISRDNAKITVFLQMNSLNPEDTEVYYWNARISGCVWHYDYWGQGTQVTVSS
- polyreactivity (PSR sort gate): high polyreactivity

Sequence: QVQIVESGGGLVQAGGSLRLSCAASGSTINYNAMGWYRQAPGKERELVAAISTNGGSTYYADSVKGRFTISRDNAKNTVYLQMNSLKPEDTAVYYCNKVRKYSRHYDYWGQGTQVTVSS
- polyreactivity (PSR sort gate): high polyreactivity

Sequence: QVQLVESGGGLVQAGGSLRLSCAASGSISDIYAMGWYRQAPGKERELVASISSGGITNYADSVKGRFTISRDNAKNTVYLQMNSLKPEDTAVYYCAKDRYPISFFYQMEYWGQGTQVTVSS
- polyreactivity (PSR sort gate): low polyreactivity

Sequence: QVQLVESGGGLVQAGGSLRLSCAASGFTFARYAMGWYRQAPGKERELVAAISRGTTTYYADSVKGRFTISRDNAKNTVYLQMNILKPDDTAVYYCAAVTTRTYPGRYYYWGQGTQVTVSS
- polyreactivity (PSR sort gate): high polyreactivity

Sequence: QLQLVESGGGLVKAGGSLRLSCAASGFIFNCYAMGWNRQAPVKEREMVARISRSGGSTYYADSVKGRFTISRDNAKNTVYLQMNSLKPEDTAVYYCAADYYWSLHQRMDYWGQGTQVTVSS
- polyreactivity (PSR sort gate): high polyreactivity

Sequence: QVQLVESGGGLVQAGGSLRLSCAASGSTFFIWNAMGWYRQAPGKERELVAGITRGGSTNYADSVKGRFTISRDNAKNTVYLQMNSLKPEDTAVYYCAADGTVVYGYDYWGQGTQVTVSS
- polyreactivity (PSR sort gate): low polyreactivity

Sequence: QVQHVESGGGLVQAGRSLRLICAASGSTFLEYAMGWYRQAPGKERELVASISWSGGSTNYADSVKGRFTFSRDNAKNTVYLQMNSLKPEDTAVFYCNARGWSVVSSRYGYWGQGTQVTVSS
- polyreactivity (PSR sort gate): low polyreactivity

Sequence: QVQLVESGGGLVQAGGSLRLSCAASGRIFLYYTMGWYRQAPGKERELVADITWRGGSTYYADSVKGRFTISRDNAKNTVYLQMNSLKPVDTAVYYCNAVSVSSNRSDYWGQGTQVTVSS
- polyreactivity (PSR sort gate): low polyreactivity

Sequence: QVQLVESGGGLVQAGGSLLLSCAASGFTFRYYAMGWYRQAPGKERELVAAITGSGTRTYYADSVKGRFTISRDYGKNTVYLQMNSLKPEDPAVYYCNAPRQPRWFDYWGQGTQVTVSS
- polyreactivity (PSR sort gate): high polyreactivity

Sequence: QVQLVESGGGLVQAGGSLRLSCAASGSIFVGYAMGWYRQAPGKERELVAAISQRGGITYYADSVKGRFTISRDNAKNTVYLQMNSLKPEDTAVYYCAAPRYLSYVRRYDYWGQGTQVTVSS
- polyreactivity (PSR sort gate): high polyreactivity

Sequence: QVQLVESGGGLVQAGGSLRLSCAASGSTFDDNAMGGYREAPRKERELVAGISDGDDSTNYADSVKGRFTISRDNAKNTVYLQMNSLTPEDTEVYFCNARYVRTYGVRFGYDYWGQGTQVTVSS
- polyreactivity (PSR sort gate): low polyreactivity

Sequence: QVQLVESGGGLVQAGGSLRLSCAASGRTFAINTMGWYRQAPGKEREFVASITRRGGSTYYADSVKVRFTISLDNAKNTVYFQMNSLKPEDTAVYYCNAELRWRLRARAAYYYWGQGSQVTVSS
- polyreactivity (PSR sort gate): high polyreactivity

Reference: the nanobody polyreactivity screen of Harvey et al. (2022)
